Assay results taken from patent US5610063A, “cDNA for α-N-acetyl-galactosaminidase from Gallus domesticus” (Curators of the University of Missouri, priority 1995, dated 1997).
“Also recorded” adds a separate entry of the source.

How the values were obtained:
[1] = target: T1, Gallus α-N-acetyl-galactosaminidase (Gallus gallus, UniProt Q90744); test: Affinity ligand chromatography; type: binding, Gallus domesticus; settings: Affi-Gel 10 coupled ligand
T1 construct: mature glycoprotein, about 145 kDa oligomer
T1 sequence (Q90744 1-405 S162A): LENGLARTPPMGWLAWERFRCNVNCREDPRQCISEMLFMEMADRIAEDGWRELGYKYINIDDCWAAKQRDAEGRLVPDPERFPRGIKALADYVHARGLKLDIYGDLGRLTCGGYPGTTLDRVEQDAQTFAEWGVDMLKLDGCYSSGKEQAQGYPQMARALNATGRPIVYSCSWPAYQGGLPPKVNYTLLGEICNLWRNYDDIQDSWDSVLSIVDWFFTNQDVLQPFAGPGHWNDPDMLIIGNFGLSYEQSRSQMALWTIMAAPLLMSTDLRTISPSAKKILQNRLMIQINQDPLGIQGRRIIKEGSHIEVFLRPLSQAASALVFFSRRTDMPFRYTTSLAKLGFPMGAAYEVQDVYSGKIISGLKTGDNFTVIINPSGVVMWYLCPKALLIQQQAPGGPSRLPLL
Procedure: Synthesis of affinity ligand and resin: .xi.-aminohexanoyl-α-D-galactopyranosYlamine was synthesized by a modification of the method of Harpaz et al. (1974). Purity of the product was determined by thin-layer chromatography and mass spectroscopy. The ligand was coupled to Affi-Gel™ 10 per the manufacturer's directions. Coupling efficiencies of 80%.
Step 5. After dialysis, the pool was applied to a 1.5×20 cm .xi.-aminohexanoyl-α-D-galactopyranosylamine Affi-Gel™ 10 column equilibrated in 50 mM Na acetate+0.1% Triton X-100+0.01% NAN3, pH 5.0. The column was washed with 90 mls of equilibration buffer, and the enzyme was eluted with 50 mM NaH2 PO4 +100 mM methyl-α-D-galactopyranoside+0.1% Triton X-100+0.01% NAN3, pH 7.0. Active fractions were pooled, concentrated, and dialyzed into 50 mM Na acetate+0.1% Triton X-100+0.01% NaN3, pH 5.0.
7. Load the filtrate onto a 2.5×15.0 cm ε-amino-hexanoyl-α-D-galactopyranosylamine Affi-Gel™ 10 column equilibrated with 10 mM NaH2 PO4, pH 5.5 at 4° C. Wash the column with 300 ml of 75 mM NaH2 PO4 pH 5.5. Elute the enzyme from the column with 300 ml (range 50 to 500) of 50 mM NaH2 PO4 +100 mM D-(+)-Galactose, pH 7.0.

[2] = test system: human α-N-acetyl-galactosaminidase; settings: human enzyme; Schram et al, 1977; cited from earlier work
[3] = target: T2, Gallus N-acetyl-α-D-galactosaminidase (Gallus gallus, UniProt Q90744); test: Substrate specificity (relative activity); type: biochemical, Gallus domesticus; settings: % of enzyme activity on the corresponding conjugate, 2.5 mM PNP conjugates, pH 3.5
T2 construct: the cDNA clone corresponds to the region of the mRNA encoding the mature polypeptide for the chicken α-N-acetyl-galactosaminidase; from tissue; host or cells: chicken liver
T2 sequence (Q90744 1-405 S162A): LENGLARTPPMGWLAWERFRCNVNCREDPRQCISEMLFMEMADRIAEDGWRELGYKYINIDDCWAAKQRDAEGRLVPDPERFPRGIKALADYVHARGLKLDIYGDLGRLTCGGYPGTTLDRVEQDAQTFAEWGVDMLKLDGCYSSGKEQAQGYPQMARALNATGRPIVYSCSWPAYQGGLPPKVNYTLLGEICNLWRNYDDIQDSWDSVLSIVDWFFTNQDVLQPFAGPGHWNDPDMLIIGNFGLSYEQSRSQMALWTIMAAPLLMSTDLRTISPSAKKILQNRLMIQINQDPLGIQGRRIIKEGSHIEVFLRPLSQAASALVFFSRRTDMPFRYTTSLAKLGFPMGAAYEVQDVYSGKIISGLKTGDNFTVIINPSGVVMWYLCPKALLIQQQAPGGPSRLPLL

[4] = target: T2, Gallus N-acetyl-α-D-galactosaminidase; test: Kinetic parameters (Km, turnover number) of Gallus enzyme; type: biochemical, Gallus domesticus; settings: Example 1 preparation
Procedure: Enzymatic activity was quantitated during the purification by measuring production of p-nitrophenol (PNP) from PNP-N-acetyl-α-D-galactosaminide or o-nitrophenol (ONP) from ONP-N-acetyl-α-D-galactosaminide. Enzyme aliquots were incubated in 200 μl of 50 mM Na citrate+1 mg/ml BSA+1.0 mM PNP-N-acetyl-α-D-galactosaminide, pH 3.5, at 37° C. The reactions were quenched with 1.0 ml of 0.25M Na2 CO3 and the OD 405 nm was measured. One unit of activity was defined as 1.0 μmole of substrate hydrolyzed per minute.

Ionic strength optimum = type: biochemical
[5] = Aminopeptidase assay with p-nitroaniline (PNA) substrates; type: biochemical; settings: for Aminopeptidase activity: five PNA substrates
Procedure: Aminopeptidase assays were performed by incubating aliquots of enzyme with 2.5 mM of various p-nitroaniline (PNA) substrates in 50 mM Na citrate+50 mM NaH2 PO4 +0.1% Triton X-100, pH 5.0 to 8.0 (Macfarlane et al., 1988). The reactions were incubated at 37° C., quenched with 1.0 ml of 0.25M Na2 CO3, and the OD 405 nm was determined. One unit of aminopeptidase activity was defined as 1.0 μmole of PNA hydrolyzed per minute.

human A2 erythrocytes [6] = test: Removal of blood group A epitope from A2 erythrocytes (hemagglutination); type: cell-based; settings: much higher enzyme concentrations are required
Procedure: (§1) Endoprotease assays were performed by an adaption of the resorufin-labeled casein assay of Twining (Twining, 1984). The limit of sensitivity of this assay was determined using a trypsin standard. Stable, concentrated, detergent-free enzyme was prepared as described herein. Activity against the blood group antigen on erythrocytes was determined by incubating enzyme at 24°-37° C. for 2-8 hours with either erythrocytes equilibrated in 25 mM Na citrate+50 mM NaH2 PO4 +80 mM NaCl, pH 5.6-5.8, or in 2.5-5 mM Na citrate+300 mM glycine, pH 5.4-5.6. The cells were washed with phosphate buffered saline, pH 7.0, then incubated with varying dilutions of polyclonal or monoclonal antibody, as for example anti-A for A erythrocytes. Other antibodies and buffers could be used for other blood groups as is known in the art. Hemagglutination was performed and titer scored by standard methods (Bryant, 1982).
The enzyme was also tested on human A2 erythrocytes. Removal of the terminal N-acetyl-α-D-galactosaminyl residue from the blood group A epitope, {galNAc(α1-3) gal(β1-R) {fuc(α1-2)} glueNAc(β1-R)}, was achieved by the enzyme as shown in FIG. 8. […] Incubation at 37° C. was necessary because dilute concentrations of glycosidase were used.

[7] = Storage stability at 4° C.; type: physicochemical
pI by chromatofocusing = type: physicochemical; settings: Example 1 preparation
pH optimum = type: biochemical; settings: for pH optimum: pH 2.0 to 8.0 tested
Procedure: The pH optima was determined by incubating aliquots of the enzyme in 40 mM Na citrate+40 mM NaH2 PO4 +1 mg/ml BSA+2.5 mM PNP-N-acetyl-α-D-galactosamide, pH 2.0 to 8.0. The ionic strength optimum was determined by incubating aliquots of the enzyme in 2.5 mM Na citrate+1 mg/ml BSA+2.5 mM PNP-N-acetyl-α-D-galactoside+0 to 1.0M NaCl, pH 3.5 and 6.0. The Kms for ONP- and PNP-N-acetyl-α-D-galactosaminide were determined by varying the substrate concentration in 50 mM Na citrate+1 mg/ml BSA, pH 3.5. The native molecular weight was determined by applying a concentrated portion of the enzyme to a 1×45 cm Sephacryl S-200 column equilibrated in 25 mM Na citrate+200 mM NaCl, pH 6.0. SDS polyacrylamide electrophoresis (SDS-PAGE) was performed according to the method of Laemmli and the protein bands developed with Coomassie R-250 (Laemmli, 1970). Amino acid composition was determined on a Beckman amino acid analyzer (Moore et al., 1954).

human A2 erythrocytes [8] = test: Erythrocyte indices, hemolysis and morphology after enzyme treatment; type: cell-based
resorufin-labeled casein = test: Endoprotease (resorufin-labeled casein) assay; type: biochemical; settings: for endoprotease activity, resorufin-labeled casein assay: sensitivity limit 0.01 trypsin BAEE units
Procedure: as §1

[9] = Hata et al., 1992; cited from earlier work
[10] = Selectivity / other glycosidase activities of the enzyme preparation; type: biochemical
[11] = preparations isolated by the invention

## NCCCCCC(=O)N[C@H]1O[C@H](CO)[C@H](O)[C@H](O)[C@H]1O [.xi.-aminohexanoyl-α-D-galactopyranosylamine]
[1]
  active site specific affinity ligand (in words): efficient active site specific affinity ligand

## O=[N+]([O-])c1ccc(O[C@H]2O[C@H](CO)[C@H](O)[C@H](O)[C@H]2O)cc1 [PNP-α-D-galactopyranoside]
[2]
  Km: 1000 µM
[3]; Table IV, Example 1 preparation
  Relative Activity: 12.74%
[3]; Table VI, improved purification (Example 2)
  Relative Activity: 15.79%
[4]
  Km (in words): high Km

B1: α-N-acetyl-galactosaminidase: purified exoglycosidase [EC 3.2.1.49] derived from Gallus domesticus (chicken) liver, degrades human blood group A2 epitope (protein, UniProt Q90744 1-405, looked up)
Alpha-N-acetylgalactosaminidas …: LENGLARTPPMGWLAWERFRCNVNCREDPRQCISEMLFMEMADRIAEDGWRELGYKYINIDDCWAAKQRDAEGRLVPDPERFPRGIKALADYVHARGLKLDIYGDLGRLTCGGYPGTTLDRVEQDAQTFAEWGVDMLKLDGCYSSGKEQAQGYPQMARALNSTGRPIVYSCSWPAYQGGLPPKVNYTLLGEICNLWRNYDDIQDSWDSVLSIVDWFFTNQDVLQPFAGPGHWNDPDMLIIGNFGLSYEQSRSQMALWTIMAAPLLMSTDLRTISPSAKKILQNRLMIQINQDPLGIQGRRIIKEGSHIEVFLRPLSQAASALVFFSRRTDMPFRYTTSLAKLGFPMGAAYEVQDVYSGKIISGLKTGDNFTVIINPSGVVMWYLCPKALLIQQQAPGGPSRLPLL
Ionic strength optimum; Example 1 preparation, high or low ionic strengths, pH 3.7
  effect of ionic strength on activity: not strongly inhibited
Ionic strength optimum; Example 2 preparation, high / increasing ionic strength (pH 3.5)
  effect of ionic strength on activity: unaffected by increasing ionic strength; also recorded: not significantly affected
[5]; Example 1 preparation, below limits of detection
  Aminopeptidase activity: ≤ 0.05 units/mg enzyme
[5]; Example 2 preparation
  Aminopeptidase activity: less than 0.05 units per mg
[5]; [11]
  aminopeptidase activity (in words): lacked detectable aminopeptidase
Human A2 erythrocytes [6]
  deantigenation at lower temperatures and shorter incubations: achieved deantigenation
[7]; Example 1 preparation, several months
  loss of activity on storage: less than 10%
[7]; Example 2 preparation, six months
  loss of activity on storage: less than 5%
[7]; purified enzyme
  stability (in words): stable at 4 °C
pI by chromatofocusing
  pI (approximate mean): ~8.15
pH optimum; Example 1 preparation
  pH range of activity (in words): broad pH range
  pH optimum: 3.7
pH optimum; Example 2 preparation
  pH range of activity (in words): broad pH range
  pH optimum: 3.4
Human A2 erythrocytes [8]
  morphology of treated cells: mixed population of normocytes and spiculated cells
Human A2 erythrocytes [8]; treated human A2 erythrocytes
  change in erythrocyte mean corpuscular volume: insignificant change
  change in mean corpuscular hemoglobin: insignificant change
  change in mean corpuscular hemoglobin concentration: insignificant change
  visible hemolysis: little visible hemolysis
resorufin-labeled casein; Example 1 preparation
  "trypsin-like activity": less than 0.78 ng per mg of pure enzyme
  proteolytic activity (in words): No proteolytic activity was detected
  endoprotease activity, resorufin-labeled casein assay: ≤ 0.01 BAEE units/mg enzyme
resorufin-labeled casein; Example 2 preparation
  "trypsin-like activity": less than 0.78 ng per mg of pure enzyme
  proteolytic activity (in words): no measurable protease activity; also recorded: No proteolytic activity was detected
  endoprotease activity, resorufin-labeled casein assay: less than 0.01 BAEE units/mg enzyme
resorufin-labeled casein; [11]
  endoprotease activity (in words): lacked detectable aminopeptidase and endoprotease activities
[9]
  degradation of the human blood group A epitope: degrades the human blood group A epitope
[10]; for PNP-N-acetyl-α-D-galactosaminide
  selectivity (in words): highly selective
[10]; preparations of the inventive isolation methods
  other glycosidase activities (in words): lack other detectable glycosidase activities
